Test [1] concerns the target HSV-1 glycoprotein D-Fc fusion protein (HSV-1) (UniProt Q69091). Briefly: phage ELISA, glycoprotein D coated, anti-M13 HRP; well C10. For orientation: In an ELISA, binding on a coated surface is turned into a signal by an enzyme label.
For test [2] the target is unchanged. Briefly: SPR Biacore T200, single cycle kinetics, G-Fc captured on anti-human IgG, 1:1 fit. In general terms: SPR reads the build-up and loss of mass on a sensor chip optically.
Test [3] shares this target. Briefly: SPR, G-Fc captured on anti-human IgG.
Test [4] has the same target. Briefly: SPR, G-Fc captured on anti-human IgG; high end tied to G75 by Table 6.
The target is the same in test [5]. Briefly: SPR Biacore T200, single cycle kinetics, G-Fc captured on anti-human IgG, 1:1 fit, second run.

B1: 3-G-75_M13R (VHH, not shown: small tags and cut ends)
VHH: QVKLEESGGGVVQDGGSLRLSCAAIEQFFTTNAMAWFRQAPGKERELVAATDWSGQSTSYADSVKGRFTISRDTAKNVMYLQMNILHTEDTAVYYCARAPGRVLLTSDLESYTIWGQGTQVTVSS
As usually defined, the Kd is the concentration at which binding is half-saturated. One may read the koff as the rate constant with which the complex falls apart. The low end stands for slow dissociation, the high end for fast dissociation. In general, kon refers to a measure of how fast the partners come together. High values mean fast association, low ones slow association. In test [1], B1 showed an A450 nm of 1.13. In addition, the Kd came out at 4.02 nM in test [2], 4 nM in test [3], 4 nM in test [4] and 3.86 nM in test [5]. Further, the koff worked out at 0.0139 s⁻¹ in test [2] and 0.0152 s⁻¹ in test [5]. The kon in test [2] was 3.47e+06 M⁻¹ s⁻¹; in test [5] it was 3.93e+06 M⁻¹ s⁻¹.

The values are drawn from patent US20230279077A1.
